assay: soluble on expression in E. coli; label from the status in PepcDB or PDB records

Sequence	soluble on expression in E. coli
SMGDREQLLQRARLAEQAERYDDMASAMKAVTELNEPLSNEDRNLLSVAYKNVVGARRSSWRVISSIEQKTMADGNEKKLEKVKAYREKIEKELETVCNDVLSLLDKFLIKNCNDFQYESKVFYLKMKGDYYRYLAEVASGEKKNSVVEASEAAYKEAFEISKEQMQPTHPIRLGLALNFSVFYYEIQNAPEQACLLAKQAFDDAIAELDTLNEDSYKDSTLIMQLLRDNLTLWTSDQQDEEAGEGN	soluble
SMGTRPRRKKHDYRIALFGGSQPQSCRYFNPKDYSWTDIRCPFEKRRDAACVFWDNVVYILGGSQLFPIKRMDCYNVVKDSWYSKLGPPTPRDSLAACAAEGKIYTSGGSEVGNSALYLFECYDTRTESWHTKPSMLTQRCSHGMVEANGLIYVCGGSLGNNVSGRVLNSCEVYDPATETWTELCPMIEARKNHGLVFVKDKIFAVGGQNGLGGLDNVEYYDIKLNEWKMVSPMPWKGVTVKCAAVGSIVYVLAGFQGVGRLGHILEYNTETDKWVANSKVRAFPVTSCLICVVDTCGANEETLET	soluble
SMMDLFETGSYFFYLDGENVTLQPLEVAEGSPLYPGSDGTLSPCQDQMPPEAGSDSSGEEHVLAPPGLQPPHCPGQCLIWACKTCKRKSAPTDRRKAATLRERRRLKKINEAFEALKRRTVANPNQRLPKVEILRSAISYIERLQDLLHRLDQQEKMQELGVDPFSYRPKQENLEGADFLRTCSSQWPSVSDHSRGLVITAKEGGASIDSSASSSLRCLSSIVDSISSEERKLPCVEEVVEK	soluble
SMQICDTYNQKHSLFNAMNRFIGAVNNMDQTVMVPSLLRDVPLSEPEIDEVSVEVGGSGGCLEERTTPAPSPGSANESFFAPSRDMYSHYVLLKSIRNDIEWGVLHQPSSPPAGSEESTWKPKDILVGLSHLESADAGEEDLEQQFHYHLRGLHTVLSKLTRKANILTNRYKQEIGFSNWGH	soluble
SMRPPIVIHSSGKKYGFSLRAIRVYMGDSDVYTVHHVVWSVEDGSPAQEAGLRAGDLITHINGESVLGLVHMDVVELLLKSGNKISLRTTALENTETSV	soluble
SMSEHSAIVTWKRKDSEAFTDNQYSRAHTWEFDGGSKILASASPHVVPVPLSVEANVDPEEAFVAALSSCHMLVFLSIAAKQRYLVESYTDNAVGILGKNSKGKTSVTKVVLRPQVVFSGTSKPTLQQLEKMHHLAHENCFIANSVETEVVTEII	soluble
SMVFDSESNLDRFLRCTTPIVPAYSLPKTQIKNLNPLWYPLESQSVEYFRLGDFWDCFDEWSAYGAGVPIVSETGETLVQYYVPYLSAIQIFTSHSVINTLREETESGDSGSESCSEEWRWEGCSSSEEGFDHQEPLDRLGYSYLQYFERCTPYSRVPLMDKIKELGERYVGLRSLRSVDLSPASWMAVAWYPIYHIPMNRSIKDLSTCFLTYHTLSSSFQDVKREEEKERISVSAFGMATYKMQGRLWDNDRLLCFLSVADSWLKQLRVHHHDFTYFTTTTHYL	soluble
SNADPKEGVQYEVLSTSLENDGMAPVTEVFALSCGHCRNMENFLPVISQEAGTDIGKMHITFNQSAHIASMFYYAAEMQVDGAPDHAFMEDLFAATQMGEGTTLTEQQEAYSKAFTSRGLVSPYDFNEEQRDTLIKKVDNAKMLSEKSGISSVPTFVVNGKYNVLIGGHDDPKQIADTIRYLLEK	soluble
SNAENNQTTTTHSKVISHVFCTGTAKLGSVGPPIGLVDIGVSEVAYIFRVSLPGIEKNQDKIKCEIQREGRVCIQGVIPEIAIPSDTGCLYRMQVQQLCPPGPFSITFNLPGQVDPRLFSPNFRSDGIFEVVVVKLGVRIPTS	soluble
SNAGMKAADFTYVTVHGDNSRMSRLKAQYTMLFFYDPDCSNCRKFEKLFAEIPAFVEMVENGTLRVLAIYPDENREEWATKAVYMPQGWIVGWNKAGDIRTRQLYDIRATPTIYLLDGRKRVILKDTSMEQLIDYLATQAGK	soluble
SNAKSEIGKYAPFFSLPNAKGEKITRSSDAFKQKSLLINFWASWNDSISQKQSNSELREIYKKYKKNKYIGMLGISLDVDKQQWKDAIKRDTLDWEQVCDFGGLNSEVAKQYSIYKIPANILLSSDGKILAKNLRGEELKKKIENIVEEA	soluble
SNAMALGFGMKMELQQFLDALASSPEKIEFETTMAVIEDNYDFTPAAFTNGNTQNDANENNGSCKIFAFGLLNALDKEATLACFGRFYREDVLLHPENNDHQNIRNFMVTGWEGIQFETSALTAK	soluble
SNAMENEKILNPIIIQRADPMIYKHNDGYYYFTASVPEYDRIEVRKAKTIEGLRNAEPVDVWRRHESGEMSNLIWAPEIHFINGAWYIYFAAAPDKNIEDDTFNHRMFVIQNENENPFTGNWVEKGRIKTAWESFSLDATIFEHNEKLYYVWAQQDINIKGHSNIYIAEMENPWTLKTKPVMLTKPELEWEIKGFWVNEGPAVLKKNGKIFITYSASATDVNYCIGMLTAEENSNLLDKNSWTKSQTPVFKTSMENHQYGPGHNSFTVSEDGKHDVIVYHARNYTEIKGDPLYDPNRHTRAQIINWREDGTPDFGVPEVDSLEIETPVKA	soluble
SNAMKPDIYENNREGILCVYKNEKWLVCIKNWKPDNDIEGIAHLEIHHSTDEQFILSAGKAILITAEKENDKFNIELTLMEKGKVYNVPAECWFYSITQKDTKMMYVQDSNCSMDNSDFCDLSKEEIEYIQTNARKLFEK	soluble
SNAMLGGIEAGGTKFVCAVGREDGTIIDRIEFPTKMPDETIEKVIQYFSQFSLQAIGIGSFGPVDNDKTSQTYGTITATPKAGWRHYPFLQTVKNEMKIPVGFSTDVNAAALGEFLFGEAKGLDSCLYITIGTGIGAGAIVEGRLLQGLSHPEMGHIYIRRHPDDVYQGKCPYHGDCFEGLASGPAIEARWGKKAADLSDIAQVWELEGYYIAQALAQYILILAPKKIILGGGVMQQKQVFSYIYQYVPKIMNSYLDFSELSDDISDYIVPPRLGSNAGIIGTLVLAHQALQAEAASGEVRS	soluble
SNAMLTFYEYPKCSTCRRAKAELDDLAWDYDAIDIKKNPPAASLIRNWLENSGLELKKFFNTSGQSYRALGLKDKLHQLSLDEAANLLASDGMLIKRPLLVKEGKIVQIGYRTAYEDLDF	soluble
SNAMSARKLFYLGPQGTFTHQAAVNAAQELARFEPQGFDLMPMDDVPQILDAAQHGDGWGIVAWENNVEGYVVPNLDALIDAKDLVGFARVGVNVEFDAYVAQGADPAEARIATAHPHGLAQCKRFIAEHRLSTQPATSNAAACRDLIPGEIAFGPAICGELYDITRIGTAIQDYQGAATDFLVLSPRAEVARLLAKPRAEANVEYESVLTLIPLVTGPGVLANLLDVFRDAGLNMTSFISRPIKGRTGTYSFIVTLDAAPWEERFRDALVEIAEHGDWAKTLAVYPRREHPNPPVTSWMLPQGGVRLDDSHLPDDWQNDETVRRELMW	soluble
SNAMSVVIYHNPKCSKSRETLALLENQGIAPQVIKYLETSPSVEELKRLYQQLGLNEVRAMMRCKEELYKELNLGDSQLSDDALFAAMAEHPKLIERPIVVCNGQARHGRPPEQVLEIL	soluble
SNGEEEFFDAVTGFDSDNSSGEFSEANQKVTGMIDLDTSKNNRIGKTGERPSQENGIQKHRTSLPAPMFSRSDFSVWTILKKCVGLELSKITMPIAFNEPLSFLQRITEYMEHVYLIHRASCQPQPLERMQSVAAFAVSAVASQWERTGKPFNPLLGETYELIREDLGFRFISEQVSHHPPISAFHSEGLNHDFLFHGSIYPKLKFWGKSVEAEPRGTITLELLKHNEAYTWTNPTCCVHNVIIGKLWIEQYGTVEILNHRTGHKCVLHFKPCGLFGKELHKVEGHIQDKNKKKLFMIYGKWTECLWGIDPVSYESFKKQERRGDHLRKAKLDEDSGKADSDVADDVPVAQETVQVIPGSKLLWRINTRPPNSAQMYNFTSFTVSLNELETGMEKTLPPTDCRLRPDIRGMENGNMDLASQEKERLEEKQREARRERAKEEAEWQTRWFYPGNNPYTGTPDWLYAGDYFERNFSDCPDIY	soluble
SNHFGNHCTNTSGVVCHNNYNCTIDNSIHYADTRGVVSHHRENITGHHGLVFPAATMNGYGPATSFPDMRENGHLMVNQNRPVTLRPSMSQQQPQPQPLSDEYNKVETGTAEQVYVPSRD	soluble

— the DeepSol protein solubility set
